These results are taken from patent US20040053249A1.

The target in this assay is Fas on Jurkat cells (cell line from human T cell) (human) (UniProt P25445). The experiment in a line: cell-based or functional assay.
Chain of UniProt P25445 (P25445 26-335): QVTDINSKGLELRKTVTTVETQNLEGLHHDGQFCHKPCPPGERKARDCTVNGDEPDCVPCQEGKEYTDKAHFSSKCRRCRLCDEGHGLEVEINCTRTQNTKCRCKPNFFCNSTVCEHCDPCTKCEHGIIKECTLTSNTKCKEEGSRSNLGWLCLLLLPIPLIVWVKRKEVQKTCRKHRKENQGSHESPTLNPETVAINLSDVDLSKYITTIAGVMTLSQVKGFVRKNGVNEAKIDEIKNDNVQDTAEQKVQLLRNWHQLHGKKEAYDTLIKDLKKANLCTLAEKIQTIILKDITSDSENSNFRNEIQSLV

Turning to “FLAG-IleZip-shFasL (pM1815), fusion protein of FLAG peptide, leucine zipper and the extracellular domain of human Fas ligand”, the apoptosis-inducing activity relative to IleZip-shFasL (WST-1 assay, Jurkat cells) is 10 times and the apoptosis-inducing activity relative to shFasL (WST-1 assay, Jurkat cells) was found to be 100 times.
